Results reported in patent US6218112A, “Optimization of gene delivery and gene delivery system” (Cobra Therapeutics Limited, priority 1997, dated 2001).
* marks the point of attachment. Acm = CC(=O)NC*

Experiments:
[1] = without salt at >20 μg/ml
[2] = tested on: plasmid nucleic acid pRSVLuc; assay: Surface plasmon resonance (BIAcore) binding kinetics of peptides/conjugates to immobilized biotinylated plasmid DNA; conditions: apparent rate constant for dissociation; SPR, PBS, 25° C.
Protocol: In the examples described below, SPR was detected using the BIAcore system. This machine contained an SPR detector and an integrated microfluidic cartridge which is engineered such that an analyte solution (cationic peptide) is continuously passed over the sensor chip. The sensor chip consists of a glass plate coated with a thin film of gold covered in a layer of carboyxymethyl dextran. The chip used has a dextran layer to which streptavidin is covalently attached. The chip is prepared for use by adding biotinylated nucleic acid which will be bound to the chip via the streptavidin-biotin interaction, and the same chip is used in a series of experiments.
As material binds to the immobilized nucleic acid molecule on the sensor chip, the SPR angle of plane polarized light shining on the surface of the chip is monitored by the detector. Changes in angle are defined as resonance units (RU) and data are collected every second. Background effects are detected and automatically subtracted by the use of a control flow cell in line with the nucleic acid flow cell.
A typical sensorgram has three phases: an association phase, an equilibrium phase and a dissociation phase (see FIG. 1). The rise in signal occurs as more peptide binds to the immobilized plasmid DNA until equilibrium conditions are reached. The height of the peak is directly proportional to the mass of peptide bound. If the flow continues with buffer containing no peptide, peptide begins to dissociate from the complex and the resonance signal is reduced. The sensorgram can be used to compute apparent rate constants for each of the three individual processes.
(1) dC/dt=ka [PF ] [Pmax -PB ]-kd [PB ]
Measurement of Binding Kinetics by Surface Plasmon Resonance
A 6 kilobase (kb) plasmid DNA (pRSVLuc) was biotinylated using photoactivatable biotin (Pierce and Warriner) as per manufacturer's instructions.
A sensor chip with immobilized streptavidin (SA5) was conditioned following manufacturer's instructions, i.e., three one-minute injections of 1 M NaCl: 50 mM NaOH followed by one 1 min injection of 0.5% SDS. Flow rate on the BlAcore sensing device was 20 μl per min, running buffer was phosphate buffered saline (PBS). Flow path was flow cells 1 and 2.
The flow path was switched to flow cell 2 only and the flow rate was reduced to 10 μl per minute. Biotinylated plasmid at a concentration of […] in 0.5M NaCl was injected for 3 mins.
Phosphate buffered saline was used as running buffer at a flow rate of 20 μl per minute. The flow path was over flow cells 1 and 2. Flow cell 1 was used as a reference cell. The experiments were carried out at a temperature of 25° C.
Peptides were injected at various concentrations for three minutes. The injection was followed by a 5 min dissociation phase before the injection port was washed. The sensor chip was regenerated by the injection of 2M NaCl for 1 min. If necessary, this injection was repeated to bring the response back down to baseline before the next peptide sample was injected.
The data was analysed using the methods described in the handbook (BIAevaluation 2.1. Software Handbook, Pharmacia Biosensor AB, Uppsala, Sweden).
Essentially the plots were evaluated as follows: The dissociation constant, kd, was determined first. A curve or family of curves (same NBC at different concentrations) were plotted as response (Y) versus time as Ln (Yo/Y) versus time. In the area where the Ln(Yo/Y) curve was linear, a fit of the default dissociation model [AB]=[A]+[B] was made. The association constant, ka, was then calculated by fitting the related association model on that part of the association curve where a plot of In(abs(dY/dt) versus time was linear. KD were approximated by dividing the calculated kd with the calculated ka.

NH2-KPKAAKPKKPKKKRKVEKKSPKKAKKPAAC(Acm)-COOH (H-KPKAAKPKKPKKKRKVEKKSPKKAKKPAAC(Acm)-OH; SMILES CC(=O)NCSC[C@H](NC(=O)[C@H](C)NC(=O)[C@H](C)NC(=O)[C@@H]1CCCN1C(=O)[C@H](CCCCN)NC(=O)[C@H](CCCCN)NC(=O)[C@H](C)NC(=O)[C@H](CCCCN)NC(=O)[C@H](CCCCN)NC(=O)[C@@H]1CCCN1C(=O)[C@H](CO)NC(=O)[C@H](CCCCN)NC(=O)[C@H](CCCCN)NC(=O)[C@H](CCC(=O)O)NC(=O)[C@@H](NC(=O)[C@H](CCCCN)NC(=O)[C@H](CCCNC(=N)N)NC(=O)[C@H](CCCCN)NC(=O)[C@H](CCCCN)NC(=O)[C@H](CCCCN)NC(=O)[C@@H]1CCCN1C(=O)[C@H](CCCCN)NC(=O)[C@H](CCCCN)NC(=O)[C@@H]1CCCN1C(=O)[C@H](CCCCN)NC(=O)[C@H](C)NC(=O)[C@H](C)NC(=O)[C@H](CCCCN)NC(=O)[C@@H]1CCCN1C(=O)[C@@H](N)CCCCN)C(C)C)C(=O)O) [NBC2]
solubility of complexes [1]: insoluble
kd [2]: 0.00938 s⁻¹
